Here are results for two molecules from paper PMC9537944, “eIF4G1 N-terminal intrinsically disordered domain is a multi-docking station for RNA, Pab1, Pub1, and self-assembly” (Frontiers in Molecular Biosciences, 2022).

Series [1] deals with the molecule itself. Kind of series: NMR paramagnetic relaxation enhancement (intermolecular PRE); 15N-labelled wild-type eIF4G1 1-249 mixed 1:1 with TEMPO spin-labelled eIF4G1 1-249 Q109C at natural isotopic abundance; intensity ratios of 1H-15N HSQC peaks, oxidised against ascorbate-reduced label; 25 mM potassium phosphate pH 6.5, 25 mM NaCl, 1 mM DTT.
Series [2] concerns the target T1, eIF4G1 1-82 (Saccharomyces cerevisiae, UniProt P39935 1-82).
T1 sequence: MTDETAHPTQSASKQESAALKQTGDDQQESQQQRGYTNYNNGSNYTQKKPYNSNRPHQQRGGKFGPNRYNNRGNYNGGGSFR
Kind of series: NMR (1H-15N HSQC titration); shifts centered at R34, R55, G65; new Arg side-chain NeHe signal; NMR: 25 mM potassium phosphate pH 6.5, 25 or 150 mM NaCl, 1 mM DTT, 10% D2O, 25 C, 800 MHz (general NMR conditions; not stated specifically for RNA titrations). To be noted: protein: recombinant; tags: N-terminal gs left after TEV cleavage of TrxA-6xHis; single strand.

B1: eIF4G1_(1-249), N-terminal intrinsically disordered region of eIF4G1 (domain or fragment, Saccharomyces cerevisiae, UniProt P39935 1-249, looked up)
chain: MTDETAHPTQSASKQESAALKQTGDDQQESQQQRGYTNYNNGSNYTQKKPYNSNRPHQQRGGKFGPNRYNNRGNYNGGGSFRGGHMGANSSNVPWTGYYNNYPVYYQPQQMAAAGSAPANPIPVEEKSPVPTKIEITTKSGEHLDLKEQHKAKLQSQERSTVSPQPESKLKETSDSTSTSTPTPTPSTNDSKASSEENISEAEKTRRNFIEQVKLRKAALEKKRKEQLEGSSGNNNIPMKTTPENVEEK
notes: 15N-labelled where it was the observed partner; Minor isoaspartate forms (12%-14%) are reported at positions 41 and 76; In the intermolecular PRE experiment the second copy was the Q109C mutant carrying a TEMPO spin label; also called eIF4G1 IDR; not shown: thioredoxin A, N-terminal, cleaved; 6xHis, internal (between thioredoxin A and the TEV site), cleaved
With B1, in series [1], the binding result is reported as “binds”.
As to AAAAAAAAAAAAAA (ssRNA) [A14], in series [2], the binding result was “binds”.
